The results in this text go back to article PMC5501724, “Structural Basis for Specific Interaction of TGFβ Signaling Regulators SARA/Endofin with HD-PTP” (Structure(London, England:1993), 2017).

Holding throughout (experiment): SPR equilibrium, peptide analyte
In one assay the target is T1, CHMP4B (Homo sapiens (Human), UniProt Q9H444).
T1 chain: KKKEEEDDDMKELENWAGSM

In the next assay the target is T2, CHMP4A (Homo sapiens (Human), UniProt Q9BY43).
T2 chain: PKVDEDEEALKQLAEWVS

The next assay has as its target T3, CHMP4C (Homo sapiens (Human), UniProt Q96CF2).
T3 chain: QRAEEEDDDIKQLAAWAT

B1: HDPTP_Bro1 (protein)
chain: MEAVPRMPMIWLDLKEAGDFHFQPAVKKFVLKNYGENPEAYNEELKKLELLRQNAVRVPRDFEGCSVLRKYLGQLHYLQSRVPMGSGQEAAVPVTWTEIFSGKSVAHEDIKYEQACILYNLGALHSMLGAMDKRVSEEGMKVSCTHFQCAAGAFAYLREHFPQAYSVDMSRQILTLNVNLMLGQAQECLLEKSMLDNRKSFLVARISAQVVDYYKEACRALENPDTASLLGRIQKDWKKLVQMKIYYFAAVAHLHMGKQAEEQQKFGERVAYFQSALDKLNEAIKLAKGQPDTVQDALRFTMDVIGGKYNSAKKDNDFIYHEAVPALDTLQPVKGAPLVKPLPVNPTDPAVTGPDIFAKLV
Turning to B1, the Kd with CHMP4B was found to be 85 µM; in the assay with CHMP4A, 132 µM; with CHMP4C, 88 µM.

One may read the Kd as a measure of binding affinity in units of concentration. A high value points to lower affinity.
